{
  "source": "the nanobody polyreactivity screen of Harvey et al. (2022)",
  "data": [
    {"assay": "yeast display, Sf9 membrane polyspecificity reagent, FACS + sequencing; frameworks hold sequencing errors", "outline": "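Genes from sorted yeast were amplified by colony PCR, read by MiSeq 2 × 250 sequencing and filtered on CDR length. These cells carried a synthetic nanobody library in Saccharomyces cerevisiae BJ5465 and were sorted by FACS into low and high (top ~1%) gates on anti-HA and streptavidin fluorescence. Polyreactivity is labelled according to the gate of origin.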", "values": [
      {"sequence": "QVQLVESGGGLVQAGGSLRLSCAASGSTFPGNAMGWYRQAPGKEREFVAVISRSGGGTYYADSVKGRFTISRDNAKNTVYLQMNSLKPEDTAVYYCAARRGLWGYGTGNGYWGQGTQVTVSS", "polyreactivity (PSR sort gate)": "low polyreactivity"},
      {"sequence": "QVQLVESGGGLVQAGGSLRLSCAASGSTFPGNAMGWYRQAPGKERELVASIRRSGGSTYYADSVKGRFTISRDNAKNTVYLQMNSLKPADTAVDDCAKRTFLVSGPRSYGCYGVYYWGQGTQVTVSS", "polyreactivity (PSR sort gate)": "high polyreactivity"},
      {"sequence": "QVQLVESGGGLVQAGGSLRLSCAASGSTFPGNAMGWYRQAPGKERELVASIRRSGGSTYYADSVKGRFTISRDNAKNTVYLQMNSLKPEDTAVYYCAKRTFLVSGPRSYGCYGVYYWGQGTQVTVSS", "polyreactivity (PSR sort gate)": "high polyreactivity"},
      {"sequence": "QVQLVESGGGLVQAGGSLRLSCAASGSTFPGYAMGWYRQAPGKERELVAAGGSTYYADSVKGRFTISRDNAKNTVYFQMNSLKPEDTAGYYCAATWGSVQKGTYYYWGQGTQVTVSS", "polyreactivity (PSR sort gate)": "low polyreactivity"},
      {"sequence": "QVQLVESGGGLVQAGGSLRLSCAASGSTFPGYAMGWYRQAPGKERELVAAISKRGGSTRYADSVKGRFTISRDNAKNTVYLQMNSLKPEDTAVYYCNNRSQISHYRRHDYWGQGTQVTVSS", "polyreactivity (PSR sort gate)": "high polyreactivity"},
      {"sequence": "QVQLVESGGGLVQAGGSLRLSCAASGSTFPKYAMGWYRQAPGKERELVAAISWSGDSTYYADSVKGRFTISRDNAKNSVYLQMNSLNPEDTAVYYCAAYNFIHAGPWEYDYWGQGTQVSVSS", "polyreactivity (PSR sort gate)": "low polyreactivity"},
      {"sequence": "QVQLVESGGGLVQAGGSLRLSCAASGSTFPLNVMGWYRQAPGKERELVAAISSSGGRTYYADSVKGRFTISRDNAKNTVYLQMNSLKPEDTAVYYCNARWRKNLSGRVFRYDYWGQGTQVTVSS", "polyreactivity (PSR sort gate)": "high polyreactivity"},
      {"sequence": "QVQLVESGGGLVQAGGSLRLSCAASGSTFPLYAMGWYRQAAGKEWELVAAITSGGGNTYYADSVKGRFTISRDNAKNTVYLQMNSLKPEDTAVYYCAAVGGYKSYYSYEYDYWGQGTQETVSS", "polyreactivity (PSR sort gate)": "low polyreactivity"},
      {"sequence": "QVQLVESGGGLVQAGGSLRLSCAASGSTFPLYAMGWYRQAPGKEREFVAAIRWIGGSTYYADSVKGRFTISRDNAKNTVYLQMNSLKPEDTAVYYCAADYVVSAFDYWGQGTQVTVSS", "polyreactivity (PSR sort gate)": "low polyreactivity"},
      {"sequence": "QVQLVESGGGLVQAGGSLRLSCAASGSTFPLYVMGWYRQAPGKERELVAAIDWSGGSTYYADSVKGRFTISRDTAKNTVYLQMNSLKPEDTAVYYCAADSPNSWRMDYWGQGTQVTVSS", "polyreactivity (PSR sort gate)": "low polyreactivity"},
      {"sequence": "QVQLVESGGGLVQAGGSLRLSCAASGSTFPPNAMGWYRQAPGKERELVADSSDSSTYYADSVKGRFTISRDNAKNTVYLQMNSLKPEDNAVYYCAAADAGLRSKSYGQQYDYWGQGTQVTVSS", "polyreactivity (PSR sort gate)": "low polyreactivity"},
      {"sequence": "QVQLVESGGGLVQAGGSLRLSCAASGSTFPPNPMGWYRKATGKERELVSSIRRGGSTHYADSVKGRFTISRDNEKNTVYLQMNSLKPEDTAVYYCAKDVWRHYLNLYDYWGQGTQVTVSS", "polyreactivity (PSR sort gate)": "low polyreactivity"},
      {"sequence": "QVQLVESGGGLVQAGGSLRLSCAASGSTFPPYAMGWYRKATGNERELVADISSGVSTNYADSVNGRFTISRDNAKNTVYLQMHSLKPEDTAVYYCAADVYHYEWWYFSEFDYWGLGTQVTVSS", "polyreactivity (PSR sort gate)": "low polyreactivity"},
      {"sequence": "QVQLVESGGGLVQAGGSLRLSCAASGSTFPPYAMGWYRQAPGKERELVADITRRGASTYYADSVKGRFTISRDNAKNTDYLQMNSLKPEDTAVYYFAAGPYVGQRWYRYNYDYWGQGTQVTVSS", "polyreactivity (PSR sort gate)": "high polyreactivity"},
      {"sequence": "QVQLVESGGGLVQAGGSLRLSCAASGSTFPRNAMGWYRQAPGKERELVAAISYSGGRTYYADSVKGRFTISRDNAKNTVYLQMNSLKPEDTAVYYCAAQPYSHVRGKSYGYWGQGTQVTVSS", "polyreactivity (PSR sort gate)": "high polyreactivity"},
      {"sequence": "QVQLVESGGGLVQAGGSLRLSCAASGSTFPRYAMGWYRQAPGKERELVAAISSSGRTYYADSVKGRFTISRDNAKNTVYLQMNSLKPEDTAVYYCNAPVARGEASYYWGQGTQVTVSS", "polyreactivity (PSR sort gate)": "high polyreactivity"},
      {"sequence": "QVQLVESGGGLVQAGGSLRLSCAASGSTFPSYAMGWYRQAPGKERELVAAINRSGGSTYYADSVKGRFTISRDNAKNTVYLQMNSLKPEYTAVYYCATGLTTGGGYYWGQGTQVTVSS", "polyreactivity (PSR sort gate)": "high polyreactivity"},
      {"sequence": "QVQLVESGGGLVQAGGSLRLSCAASGSTFPSYAMGWYRQAPGKERELVAAINSGGGTNYADSVKGRFTISRDNAKNTVYLQINSLKPEDTAVFYCAKSRYDYTKTEGVYWGQGTQVTVSS", "polyreactivity (PSR sort gate)": "low polyreactivity"},
      {"sequence": "QVQLVESGGGLVQAGGSLRLSCAASGSTFPSYAMGWYRQAPGKERELVAVITSGGRTYYADSVKGRFTISRDNAKNTVYLQMNSLKPEDTAVYYCAARGHRGYQGYDYWGQGTPVTVSS", "polyreactivity (PSR sort gate)": "high polyreactivity"},
      {"sequence": "QVQLVESGGGLVQAGGSLRLSCAASGSTFPSYTMGWYRQAPGKERELVAAITLSGGSTYYADSVNGRFTISRDNAKYTVYLQMNSLKPSDTAVYYCAAYSQRGYYWGQGTQVTVSS", "polyreactivity (PSR sort gate)": "low polyreactivity"},
      {"sequence": "QVQLVESGGGLVQAGGSLRLSCAASGSTFPTYAMGWYRQAPGKERELVAAITRGGRTYYADSVKGRFTISRDNAKNTVYLQMNSLKPEDTAVYYCAAVYYGAAQYNYWGQGTQVTVSS", "polyreactivity (PSR sort gate)": "high polyreactivity"},
      {"sequence": "QVQLVESGGGLVQAGGSLRLSCAASGSTFPVYAMGWYRQAPGKERELVAAISRSGASTYYADSVKGRFTISRDNAKNTVYLQMNSLKPEDTAVYYCARGYQGRLKYEYWGQGTQVTVSS", "polyreactivity (PSR sort gate)": "low polyreactivity"},
      {"sequence": "QVQLVESGGGLVQAGGSLRLSCAASGSTFPVYAMGWYRQAPGKERELVASLSSGAETNYADSVKGRFTISRDNAKNTVYLQLISLTPEDTAVYYCAATVPLRTIRPRSYGYWGQGTQVTVSS", "polyreactivity (PSR sort gate)": "low polyreactivity"},
      {"sequence": "QVQLVESGGGLVQAGGSLRLSCAASGSTFPWNAMGWYRPAPGKERELVAAISSGGSTNYADSVKGRFTISRDNAKNTVYLQMNSLKPEDTAVYYCNAYYWSDSRGKYDYWGQGTQVTVSS", "polyreactivity (PSR sort gate)": "low polyreactivity"},
      {"sequence": "QVQLVESGGGLVQAGGSLRLSCAASGSTFPWNAMGWYRQAPGKERELVAAINYGNGSTYYADSVKGRFTISRDNAKNTVYLQMNSLKPEDTAVYYCNADYTGTRTDSVTPEYEYCGQGTQVTVSS", "polyreactivity (PSR sort gate)": "low polyreactivity"},
      {"sequence": "QVQLVESGGGLVQAGGSLRLSCAASGSTFPWNAMGWYSQAPGKEREMVAAINYGNGSTYYADSVKGRFTISRDNAKNTVYLQMNSLKPEDTAVYYCNADYTGTRTDSVSPEYEYWGQGTQVTVSS", "polyreactivity (PSR sort gate)": "low polyreactivity"},
      {"sequence": "QVQLVESGGGLVQAGGSLRLSCAASGSTFPYNAMGSYRQAPGKERELVAAISSSGGRTYYADSVKGRFTISRDTAKNTVYLQMNSLKPEDTAVYYCNAAYYYTYGYWGQGTQVTVSS", "polyreactivity (PSR sort gate)": "high polyreactivity"},
      {"sequence": "QVQLVESGGGLVQAGGSLRLSCAASGSTFPYNAMGWYRPAPGKERELVAAISSGGITYYADSVKGRFTISRDNAKNTVYLQMNSLIPEDTAVYYCAATVLGDYEYWGQGTQVTVSS", "polyreactivity (PSR sort gate)": "low polyreactivity"},
      {"sequence": "QVQLVESGGGLVQAGGSLRLSCAASGSTFPYNAMGWYRQAPGKERELLAAISWRGGRTYYADSVKGRFTISRDNAKNTVYLQMNSLKPEYTGVFYCAVVLSTYSYADYDYWGQGTHVTVSS", "polyreactivity (PSR sort gate)": "high polyreactivity"},
      {"sequence": "QVQLVESGGGLVQAGGSLRLSCAASGSTFPYPYTMGWYRQAPGKERELVAVNSRTGGSTFYADSVKGRFTISRDNAKNTVYFQMNSLKPEDTAVYYCAARRDGWTFWKYDYWGQGTQVTVSS", "polyreactivity (PSR sort gate)": "high polyreactivity"},
      {"sequence": "QVQLVESGGGLVQAGGSLRLSCAASGSTFPYYAMGWYRQAPGKEREFVAAISSSGGSTYYADSVKWRFTISRDNAKNTVYLQMNSLKPEDTAVYYCAAQGARRNYYRYGTYTNRRYDYWGQGTQVTVSS", "polyreactivity (PSR sort gate)": "high polyreactivity"},
      {"sequence": "QVQLVESGGGLVQAGGSLRLSCAASGSTFPYYAMGWYRQAPGKERELVAVITSSGSRTYYADSVKGRFTISRDNAKNTVYLPMNSLKPEDTAVYYCARDTRYYLPYRSQYDYWGQGTQVTVSS", "polyreactivity (PSR sort gate)": "high polyreactivity"},
      {"sequence": "QVQLVESGGGLVQAGGSLRLSCAASGSTFQDNAMGWYRQAPGKERELVAVITRTGGDTNYADSVKGRFTISRDNAKNTVYLQMNSLKPEDTAVYYCAADNVYVTWFYYWGQGTQVTVSS", "polyreactivity (PSR sort gate)": "low polyreactivity"},
      {"sequence": "QVQLVESGGGLVQAGGSLRLSCAASGSTFQFYALGWYRQAPGKERELVAAISVSGDRTYYADSVKGRFTISRDYAKNTVYLQMNSLKPEDTAVYYCAASIWHFEVVSWYLYDYWGQGTQVTVSS", "polyreactivity (PSR sort gate)": "high polyreactivity"},
      {"sequence": "QVQLVESGGGLVQAGGSLRLSCAASGSTFQFYAMGWYRQAPGKERELVAAISVSGDRTYYADSVKGRFTISRDNAKNTVYLQMNSLKPEDTAVYYCAARYGPFKRRFDYWGQGTQVTVSS", "polyreactivity (PSR sort gate)": "high polyreactivity"},
      {"sequence": "QVQLVESGGGLVQAGGSLRLSCAASGSTFQGYAMGRYRQAPGKERELVAGITGSGGSSYYADSVKGRFTISRDNAKNTVYLQMNSLKPEDTAVYYCAARYYQSYYYKYYYWGQGTQVTVSS", "polyreactivity (PSR sort gate)": "high polyreactivity"},
      {"sequence": "QVQLVESGGGLVQAGGSLRLSCAASGSTFQGYTMGWYRQAPGKERELVAAISVRRGITYYADSVKGRFTISRDNAKNTVYLQMNSLKPEDTAVYYCNAYYYRPYGNKYGYWGQGTQVTVSS", "polyreactivity (PSR sort gate)": "high polyreactivity"},
      {"sequence": "QVQLVESGGGLVQAGGSLRLSCAASGSTFQLYAMGWYRQAPGKERELVAGISRDGSTYYADSVKGRFTISRDNAKNTVYLQMNSLKPEDTAVYYCAAKYYGNKRDLYYWGQGTQVTVSS", "polyreactivity (PSR sort gate)": "low polyreactivity"},
      {"sequence": "QVQLVESGGGLVQAGGSLRLSCAASGSTFQLYDMGWYRQEPGKERELVAGISRDGSTYYADSVKGRFTISRDNAKNTVYLLMNSLKPEDTAVYYCAAKFYGNKRDLYYWGQGTQVTVSS", "polyreactivity (PSR sort gate)": "low polyreactivity"},
      {"sequence": "QVQLVESGGGLVQAGGSLRLSCAASGSTFQLYSMGWYRQAPGKERELVAAIRWRGGSTYYADSVKGRFTISRDNAKNTVYLQMNSLKPEDTAFYYCAAVGYNYNVEYYYWGQGTQVTVSS", "polyreactivity (PSR sort gate)": "high polyreactivity"},
      {"sequence": "QVQLVESGGGLVQAGGSLRLSCAASGSTFQNNAMGWYRQAPGKERELVATISRRGGSTYYADSVKGRFTISRDIAKNTVYLQMNSLKPEDTAVYYCTGRDYWGQGTQVTVSS", "polyreactivity (PSR sort gate)": "high polyreactivity"},
      {"sequence": "QVQLVESGGGLVQAGGSLRLSCAASGSTFQPYAMGWSRQAPGKERECVATISGSAGSTYYADSVKGRFKISRDNAKNTVYLQMNSLKPEDTAVYYCKAESPEGYRLLDYWGQGTQVTVSS", "polyreactivity (PSR sort gate)": "low polyreactivity"},
      {"sequence": "QVQLVESGGGLVQAGGSLRLSCAASGSTFQPYAMGWYRPAPGKERELVAAIRYSGGITYYADSVKGRFTISRDNAKNSVYLQMNSLKPEDTAVYYCAAYGFYGGDYWGQGTQVTVSS", "polyreactivity (PSR sort gate)": "high polyreactivity"}
    ]}
  ]
}
